Measurements as given in US8795627B2, “Treatment of liver disorders by administration of RAP conjugates” (Raptor Pharmaceuticals Inc., priority 2007, dated 2014).
Bridge positions count the residues as written; N and C are the ends. * marks the point of attachment. Biotin = O=C1N[C@H]2[C@H](CS[C@H]2CCCCC(=O)*)N1

What was measured:
[1] = test system: hepatocellular carcinoma; settings: systemic chemotherapy, HCC patients; cited from earlier work
[2] = target: T1, recombinant human LRP1 cluster II (Homo sapiens, UniProt Q07954); assay: Solid phase binding assay, affinity for LRP1 cluster II
T1 construct: R&D Systems, amino acids 786-1165, with C-terminal Fc tag; purchased R&D Systems
T1 sequence (Q07954 805-1184): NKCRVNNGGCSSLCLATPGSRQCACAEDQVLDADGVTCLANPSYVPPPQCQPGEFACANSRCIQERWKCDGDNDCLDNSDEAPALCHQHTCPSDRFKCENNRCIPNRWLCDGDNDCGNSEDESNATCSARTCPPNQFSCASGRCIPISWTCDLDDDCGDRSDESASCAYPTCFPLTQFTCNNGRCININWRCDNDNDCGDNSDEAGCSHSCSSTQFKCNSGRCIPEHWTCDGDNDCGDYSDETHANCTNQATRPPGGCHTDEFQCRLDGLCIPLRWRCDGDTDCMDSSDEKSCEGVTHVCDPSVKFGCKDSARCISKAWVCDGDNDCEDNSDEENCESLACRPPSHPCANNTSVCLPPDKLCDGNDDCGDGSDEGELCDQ
Excerpt: (§1) Control wells contained no added inhibitor. […] Excess HRP conjugate was removed and wells washed. Color was developed using TMB reagents (BioRad, Hercules, Calif.).

[3] = target: T2, LRP1-C2 (Homo sapiens, UniProt Q07954); assay: Inhibition of RAP d3 binding to LRP1-C2, solid phase assay (streptavidin multimerization); set-up: R&D Systems, amino acids 786-1165, with C-terminal Fc tag; purchased R&D Systems
T2 sequence (Q07954 805-1184): T1 sequence (Q07954 805-1184)
Excerpt: as §1

[4] = target: T2, LRP1-C2; assay: Inhibition of RAP d3 binding to LRP1-C2, solid phase assay (anti-biotin antibody, preincubation with receptor); settings: fit parameter of inhibition curve, 2 nM RAP d3
Method: Briefly, recombinant human LRP1 cluster II (R&D Systems, amino acids 786-1165, with C-terminal Fc tag, 1 μg) was used to coat Nunc MAXISORP™ 96-well plates in TBS pH 8 supplemented with 5 mM CaCl2 (TBSC) overnight at 4° C. Wells were washed with TBSC and blocked with TBSC containing 2% BSA.
Since the ligand binding competence of CR pairs requires calcium, identical binding reactions were done in the presence of 50 mM EDTA to provide a measure of non-specific binding. Control wells contained no added inhibitor. Wells were washed with TBS supplemented with 5 mM CaCl2 and 0.05% Tween-20. Bound ligand was detected with either anti-5-peptide-HRP conjugate (Abcam) or anti-α-2-macroglobulin-HRP conjugate (Abcam). Excess HRP conjugate was removed and wells washed. Color was developed using TMB reagents (BioRad, Hercules, Calif.). Absorption at 450 nm was measured with a microplate spectrophotometer (Molecular Devices, Palo Alto).
The same procedure was performed for the controls; peptide alone, antibody alone and full-length RAP.

[5] = in vivo, iv; cited from earlier work
[6] = rat, in vivo, iv; cited from earlier work
[7] = test system: wild-type CHO-K1 cells; assay: MTT cell viability after toxin delivery, wild-type CHO-K1; settings: 48 hours
Method: (§2) In order to determine whether a RAP peptide conjugated to a cytotoxic agent could effectively deliver the toxin to the cell and initiate cell death, an in vitro assay was used to assess delivery of toxin via the RAP-LRP1 binding and internalization pathway.
(§3) Wild-type and LRP1-deficient CHO-K1 cells were grown in BioWhittaker Ultra-CHO supplemented with 5% fetal bovine serum. Cells were seeded in 12-well plates 48 hours prior to the experiment. […] The mixture was diluted into growth media to 100 nM and added to wells in duplicate. […] Cells were incubated for 48 hours at 37° C., 5% CO2 in a humidified chamber. Cell viability for each treatment condition was determined with an MTT assay kit (Invitrogen, San Diego).

[8] = test system: LRP1-deficient CHO-K1 cells; assay: MTT cell viability after toxin delivery, LRP1-deficient CHO-K1; settings: LRP-deficient CHO-K1, 1 μM, 48 hours
Method: as §2, §3

[9] = in vivo
[10] = in vivo, iv; cited from earlier work; remark: listed apart in the source

COc1cccc2c1C(=O)c1c(O)c3c(c(O)c1C2=O)C[C@@](O)(C(=O)CO)C[C@@H]3O[C@H]1C[C@H](N)[C@H](O)[C@H](C)O1 [adriamycin]
response rates [1]: 15-20%

Biotin-GGSGGCEAKIEKHNHYQKQLEIAHEKLRHAESVGDGERVSRSREKHALLEGRTKELGYTVKKHGC (disulfide 6-65 (inferred)) [mRAP-14c]
Kd [2]: ~21 nM

Biotin-GGSGGCGKHFEAKIEKHNHYQKQLEIAHEKLRHAESVGDGERVSRSREKHALLEGRTKELGYTVKKHLQDGC (disulfide 6-72 (inferred)) [mRAP-8c]
Kd [2]: ~4 nM

RAP: mature full-length receptor-associated protein, 323 amino acids (SEQ ID NO: 1); Tables 3 and 4, b198
fold better EC50 than peptide assembled on streptavidin [3]: about 10 fold | Maximum binding ([3]; fit parameter of inhibition curve, 2 nM RAP d3): 0.29 | Maximum binding [4]: 0.74 | toxicity [5]: no measurable toxicity | accumulation in heart, brain, muscle or kidney [6]: < 1 % of injected dose | circulating half-life [6]: less than a minute

Saporin [reference compound]
loss of viable cells ([7]; wild-type CHO-K1, 1 μM): about 55% | loss of viable cells [8]: ~35%

biotin-GGSGGCGFREELKHFEAKIEKHNHYQKQLEIAHEKLRHAESVGDGERVSRS REKHALLEGRTKELGYTVKKHLQDLSGGC [mini-RAPc]
effect on cell survival ([7]; 100 nM, cell type not specified (wild-type and LRP1-deficient CHO-K1 tested)): no significant effect on cell survival

streptavidin: streptavidin alone, control (35S-labeled in bio-distribution studies) [reference compound]
inhibitory effect on RAP d3 binding ([3]; in words): no inhibitory effect | uptake in the woodchuck liver, mean [9]: 435 PSL/mm^2 | tissue accumulation [10]: accumulate in kidney, but not significantly in liver
